Laboratory results as given in the supplement of paper PMC7125110.
± gives the standard error. Fewer inactive variants are shown than the library holds.

B1: glmS ribozyme (parent)
chain: AUAAAAGCGCCAGAACUACAGAAAUGUAGUUGACGAGGAGGAGGUUUAUCGAAUUUUCGGCGGAUGCCUCCAAA

Assays:
Settings in all cases: with glucosamine-6-phosphate
glucosamine-6-phosphate [1] = variants of: B1; assay: self-cleavage kobs at 40 uM GlcN6P; higher = faster cleavage; RNA array
How it was run: (§1)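 The measurements used barcoded ribozyme variants on sequenced MiSeq chips, transcribed in situ by E. coli RNA polymerase and tracked at 37 °C with a hybridised Cy3 probe. Glucosamine-6-phosphate, 40 μM to 10 mM in HEPES/KCl/Mg(OAc)2 buffer, was flowed in while tiles were imaged over ~14 h. Baseline-normalised signals, also normalised to non-cleaving reference variants, gave per-tile medians that were fit to one- or two-exponential decays for kobs. kcat and KM resulted from weighted Michaelis–Menten fits across concentrations.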

glucosamine-6-phosphate [2] = variants of: B1; assay: self-cleavage kobs at 640 uM GlcN6P; higher = faster cleavage; RNA array
How it was run: as §1

glucosamine-6-phosphate [3] = variants of: B1; assay: self-cleavage kobs at 2500 uM GlcN6P; higher = faster cleavage; RNA array
How it was run: as §1

glucosamine-6-phosphate [4] = variants of: B1; assay: self-cleavage kobs at 10000 uM GlcN6P; higher = faster cleavage; RNA array
How it was run: as §1

glucosamine-6-phosphate [5] = variants of: B1; assay: self-cleavage kobs at 160 uM GlcN6P; higher = faster cleavage; RNA array
How it was run: as §1

Variant | self-cleavage kobs at 40 uM GlcN6P (glucosamine-6-phosphate [1]) [s⁻¹] | self-cleavage kobs at 640 uM GlcN6P (glucosamine-6-phosphate [2]) [s⁻¹] | self-cleavage kobs at 2500 uM GlcN6P (glucosamine-6-phosphate [3]) [s⁻¹] | self-cleavage kobs at 10000 uM GlcN6P (glucosamine-6-phosphate [4]) [s⁻¹] | self-cleavage kobs at 160 uM GlcN6P (glucosamine-6-phosphate [5]) [s⁻¹]
G9A A12U C61A | < 1e-05 | – | – | – | –
C8A C50G A53U C67U | 0.000239 ± 5.6e-05 | 0.000168 ± 5.7e-05 | 0.000626 ± 0.00028 | 0.000304 ± 5e-05 | –
C8A A33U C34A U56A | < 1e-05 | – | – | – | –
C8U U47A | < 1e-05 | < 1e-05 | – | < 1e-05 | < 1e-05
C8U G29A G60U | < 1e-05 | < 1e-05 | – | < 1e-05 | –
G7U U45G C61A | < 1e-05 | – | – | < 1e-05 | –
G9A A14C | < 1e-05 | – | < 1e-05 | – | < 1e-05
G7U G9C A42G A52U | < 1e-05 | < 1e-05 | – | – | –
C8A G37C U69G C71G | 0.000455 ± 0.00017 | – | – | – | –
G7U C16G A36C A42C A52G | < 1e-05 | – | – | – | –
C8G A12U A33U G60C | < 1e-05 | – | – | < 1e-05 | –
G7U A52G | < 1e-05 | – | – | – | < 1e-05
C8U C10A G40C C67A | < 1e-05 | – | – | – | –
G7U G41U | < 1e-05 | < 1e-05 | < 1e-05 | < 1e-05 | < 1e-05
C8A A33U G40A A64G C68A | < 1e-05 | < 1e-05 | < 1e-05 | < 1e-05 | –
G7U G51C | < 1e-05 | < 1e-05 | < 1e-05 | – | –
C8U G43U | < 1e-05 | – | < 1e-05 | < 1e-05 | < 1e-05
C8G U49A U54C G59U C67A | < 1e-05 | < 1e-05 | < 1e-05 | < 1e-05 | < 1e-05
C8A U30G U31C | < 1e-05 | – | < 1e-05 | < 1e-05 | –
G7U U69A | 3.92e-05 ± 1.7e-05 | – | – | – | 0.000853 ± 0.00032
G7U U69G | 0.000114 ± 2.1e-05 | 0.000299 ± 7e-05 | 6.87e-05 ± 1.8e-05 | 0.000226 ± 8.9e-05 | –
C8A C10A | < 1e-05 | < 1e-05 | – | – | < 1e-05
C8U C16G C50G | 0.000158 ± 3.8e-05 | – | – | 8.29e-05 ± 1.9e-05 | –

Variant | self-cleavage kobs at 40 uM GlcN6P (glucosamine-6-phosphate [1]) [s⁻¹] | self-cleavage kobs at 640 uM GlcN6P (glucosamine-6-phosphate [2]) [s⁻¹] | self-cleavage kobs at 2500 uM GlcN6P (glucosamine-6-phosphate [3]) [s⁻¹] | self-cleavage kobs at 10000 uM GlcN6P (glucosamine-6-phosphate [4]) [s⁻¹] | self-cleavage kobs at 160 uM GlcN6P (glucosamine-6-phosphate [5]) [s⁻¹]
C8G G41U C61U | < 1e-05 | – | – | < 1e-05 | < 1e-05
G7U C11G A12C A42U | < 1e-05 | – | < 1e-05 | – | –
C8U G35U | < 1e-05 | < 1e-05 | < 1e-05 | < 1e-05 | < 1e-05
G7U G40C G43C | < 1e-05 | – | – | < 1e-05 | –
C8G A14G A33G | < 1e-05 | – | < 1e-05 | < 1e-05 | –
C8U A48G | < 1e-05 | – | < 1e-05 | < 1e-05 | < 1e-05
G7U G43U A52G C68A C70U | < 1e-05 | – | – | – | –
C8A G32A G37A | < 1e-05 | – | – | – | –
C8U A33C G44A C50G | < 1e-05 | < 1e-05 | < 1e-05 | – | –
C8G C58A | < 1e-05 | < 1e-05 | < 1e-05 | < 1e-05 | < 1e-05
G9A G13A G43U G60A | < 1e-05 | – | – | – | –
C8G U65G C68A | < 1e-05 | – | < 1e-05 | – | –
C8G U65A | < 1e-05 | – | – | – | –
C8U C34U | < 1e-05 | < 1e-05 | – | < 1e-05 | –
C8A A53C | < 1e-05 | < 1e-05 | < 1e-05 | < 1e-05 | < 1e-05
C8A A53U | < 1e-05 | < 1e-05 | < 1e-05 | < 1e-05 | < 1e-05
G9A C11G A52C C68U | < 1e-05 | – | – | < 1e-05 | –
C8A C16U U45C G62U C70A | < 1e-05 | – | – | – | –
C8G | < 1e-05 | < 1e-05 | < 1e-05 | < 1e-05 | < 1e-05
C8U | < 1e-05 | < 1e-05 | < 1e-05 | – | < 1e-05
G9A A52U U65G | < 1e-05 | – | – | – | –
G7U G44U | < 1e-05 | < 1e-05 | – | < 1e-05 | < 1e-05
C8G A39U A53C C58U | < 1e-05 | – | – | – | –

Variant | self-cleavage kobs at 40 uM GlcN6P (glucosamine-6-phosphate [1]) [s⁻¹] | self-cleavage kobs at 640 uM GlcN6P (glucosamine-6-phosphate [2]) [s⁻¹] | self-cleavage kobs at 2500 uM GlcN6P (glucosamine-6-phosphate [3]) [s⁻¹] | self-cleavage kobs at 10000 uM GlcN6P (glucosamine-6-phosphate [4]) [s⁻¹] | self-cleavage kobs at 160 uM GlcN6P (glucosamine-6-phosphate [5]) [s⁻¹]
C8G U56A | < 1e-05 | < 1e-05 | < 1e-05 | – | –
C8G A33C C67G | < 1e-05 | < 1e-05 | – | – | –
C8U A36C G41C | < 1e-05 | – | – | – | –
C8A G40A G63A | < 1e-05 | – | – | < 1e-05 | –
G7C U57A | < 1e-05 | – | – | – | < 1e-05
G7U G13A A15U U31G U49G C67A | < 1e-05 | – | – | – | –
C8A U45A | < 1e-05 | < 1e-05 | < 1e-05 | < 1e-05 | < 1e-05
C8A U45C | < 1e-05 | < 1e-05 | < 1e-05 | – | –
C8G A15U | < 1e-05 | < 1e-05 | < 1e-05 | < 1e-05 | < 1e-05
G9A C70U | < 1e-05 | < 1e-05 | – | 2.28e-05 ± 1e-05 | –
G9A G13C | < 1e-05 | < 1e-05 | < 1e-05 | – | < 1e-05
C8U G32C G60U | < 1e-05 | < 1e-05 | < 1e-05 | < 1e-05 | < 1e-05
G9A C58U | < 1e-05 | < 1e-05 | < 1e-05 | < 1e-05 | < 1e-05
C8G G62U | < 1e-05 | < 1e-05 | < 1e-05 | – | < 1e-05
C8G G62A | < 1e-05 | – | < 1e-05 | – | –
C8A G35C G66A C70G | < 1e-05 | – | – | < 1e-05 | –
C8G G13A | < 1e-05 | < 1e-05 | < 1e-05 | < 1e-05 | –
G7U C11A C61G | < 1e-05 | – | – | – | –
G9A G32A | < 1e-05 | < 1e-05 | < 1e-05 | < 1e-05 | –
C8A A15U U31A G41U C50U G51U G62A | < 1e-05 | – | < 1e-05 | < 1e-05 | –
G7U G35A G40C G43C C58G | < 1e-05 | – | – | – | –
C8U G9U U30G A64C | < 1e-05 | – | – | < 1e-05 | –
C8A G44U | < 1e-05 | < 1e-05 | – | < 1e-05 | < 1e-05

Variant | self-cleavage kobs at 40 uM GlcN6P (glucosamine-6-phosphate [1]) [s⁻¹] | self-cleavage kobs at 640 uM GlcN6P (glucosamine-6-phosphate [2]) [s⁻¹] | self-cleavage kobs at 2500 uM GlcN6P (glucosamine-6-phosphate [3]) [s⁻¹] | self-cleavage kobs at 10000 uM GlcN6P (glucosamine-6-phosphate [4]) [s⁻¹] | self-cleavage kobs at 160 uM GlcN6P (glucosamine-6-phosphate [5]) [s⁻¹]
C8G G29U G66U | < 1e-05 | – | – | – | –
C8U A15G | < 1e-05 | < 1e-05 | – | < 1e-05 | < 1e-05
C8U A15C | < 1e-05 | < 1e-05 | – | – | < 1e-05
G7C U65A | < 1e-05 | < 1e-05 | – | < 1e-05 | –
C8G A14G U31C | < 1e-05 | – | – | – | –
G7U A64C | < 1e-05 | < 1e-05 | – | < 1e-05 | –
C8G A48G C58G | < 1e-05 | < 1e-05 | – | < 1e-05 | < 1e-05
C8U G37C | < 1e-05 | < 1e-05 | < 1e-05 | < 1e-05 | < 1e-05
C8G C34A | < 1e-05 | – | < 1e-05 | < 1e-05 | < 1e-05
G7U G60C | < 1e-05 | < 1e-05 | – | < 1e-05 | < 1e-05
C8A G35C | < 1e-05 | < 1e-05 | < 1e-05 | < 1e-05 | < 1e-05
G9A A42C C71A | < 1e-05 | < 1e-05 | < 1e-05 | < 1e-05 | < 1e-05
C8G U56C G62C | < 1e-05 | < 1e-05 | < 1e-05 | < 1e-05 | –
G9A G40U C50G | < 1e-05 | – | – | – | –
G7U G29A U30C C34U U45A | < 1e-05 | – | – | – | –
G7U U30G C61G G62U | < 1e-05 | – | – | – | –
G9A C67U | < 1e-05 | – | < 1e-05 | – | < 1e-05
C8G A15G A39G C67G | < 1e-05 | – | – | – | –
G9A A64C | < 1e-05 | < 1e-05 | < 1e-05 | – | < 1e-05
C8U C11U U45C G63C | < 1e-05 | – | – | – | –
G9A A53U | < 1e-05 | < 1e-05 | – | – | < 1e-05
G9A G44C | < 1e-05 | < 1e-05 | < 1e-05 | – | –
G7U A14U U55C G63U C70A | < 1e-05 | < 1e-05 | < 1e-05 | – | –
